Test results as given in article PMC6530537 (2019).

Molecular target: CK2β (Homo sapiens, UniProt P67870)
Experiment: ITC

Chain of CK2β (P67870 2-215): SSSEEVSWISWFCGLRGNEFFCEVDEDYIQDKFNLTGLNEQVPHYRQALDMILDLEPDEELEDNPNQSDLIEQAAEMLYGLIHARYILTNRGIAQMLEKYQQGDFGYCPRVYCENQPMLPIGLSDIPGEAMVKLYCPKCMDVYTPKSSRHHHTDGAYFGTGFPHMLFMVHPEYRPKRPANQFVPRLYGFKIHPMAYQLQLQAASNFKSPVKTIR

- Kd: 9 nM
B1: CK2α (protein)
chain: MSGPVPSRARVYTDVNTHRPREYWDYESHVVEWGNQDDYQLVRKLGRGKYSEVFEAINITNNEKVVVKILKPVKKKKIKREIKILENLRGGPNIITLADIVKDPVSRTPALVFEHVNNTDFKQLYQTLTDYDIRFYMYEILKALDYCHSMGIMHRDVKPHNVMIDHEHRKLRLIDWGLAEFYHPGQEYNVRVASRYFKGPELLVDYQMYDYSLDMWSLGCMLASMIFRKEPFFHGHDNYDQLVRIAKVLGTEDLYDYIDKYNIELDPRFNDILGRHSRKRWERFVHSENQHLVSPEALDFLDKLLRYDHQSRLTAREAMEHPYFYTVVKDQARMGSSSMPGGSTPVSSANMMSGISSVPTPSPLGPLAGSPVIAAANPLGMPVPAAAGAQQ
